Experiments:
Test in all cases: holdup assay
Parameters in all cases: key: below the threshold = too weak to quantify, mostly under pKd 3.1 to 4
Details in all cases: plain residues with an end cap or a label only (N-terminal biotin on a linker: ado-ado)
LRRC7, Q96NW7 = molecular target: T1, LRRC7, Q96NW7
T1 sequence (Q96NW7 1440-1537, limits assumed, looked up): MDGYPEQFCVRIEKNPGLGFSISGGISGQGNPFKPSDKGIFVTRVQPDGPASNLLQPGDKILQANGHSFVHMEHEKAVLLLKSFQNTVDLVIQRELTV

APBA1_1, Q02410 = molecular target: T2, APBA1_1, Q02410
T2 sequence (Q02410 651-752, limits assumed, looked up): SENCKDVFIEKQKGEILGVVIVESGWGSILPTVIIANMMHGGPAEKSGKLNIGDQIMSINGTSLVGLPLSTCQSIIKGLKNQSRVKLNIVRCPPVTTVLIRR

MAGI2_4, Q86UL8 = molecular target: MAGI2_4, Q86UL8
MAGI2_4, Q86UL8, sequence (Q86UL8 772-865): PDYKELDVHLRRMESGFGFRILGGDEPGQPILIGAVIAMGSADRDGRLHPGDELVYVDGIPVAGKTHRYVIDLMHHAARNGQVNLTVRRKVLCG

PARD3_3, Q8TEW0 = molecular target: PARD3_3, Q8TEW0
PARD3_3, Q8TEW0, sequence (Q8TEW0 582-685): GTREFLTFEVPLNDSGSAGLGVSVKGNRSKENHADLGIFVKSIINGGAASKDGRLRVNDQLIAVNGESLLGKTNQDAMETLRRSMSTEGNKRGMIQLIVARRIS

ARHGEF11, O15085 = molecular target: T3, ARHGEF11, O15085
T3 sequence (O15085 42-136, limits assumed, looked up): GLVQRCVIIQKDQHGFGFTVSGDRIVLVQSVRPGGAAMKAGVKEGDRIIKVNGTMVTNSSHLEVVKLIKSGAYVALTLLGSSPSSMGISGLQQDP

Inadl_8, Q8NI35 = molecular target: Inadl_8, Q8NI35
Inadl_8, Q8NI35, sequence (Q8NI35 1425-1530): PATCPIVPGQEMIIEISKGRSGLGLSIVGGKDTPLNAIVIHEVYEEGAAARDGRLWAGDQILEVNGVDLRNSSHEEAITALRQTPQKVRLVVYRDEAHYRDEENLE

DLG4_1, P78352 = molecular target: DLG4_1, P78352
DLG4_1, P78352, sequence (P78352 62-152): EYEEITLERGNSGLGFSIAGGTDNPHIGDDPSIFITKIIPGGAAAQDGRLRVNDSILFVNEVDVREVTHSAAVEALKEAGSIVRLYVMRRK

Inadl_2, Q8NI35 = molecular target: Inadl_2, Q8NI35
Inadl_2, Q8NI35, sequence (Q8NI35 238-335): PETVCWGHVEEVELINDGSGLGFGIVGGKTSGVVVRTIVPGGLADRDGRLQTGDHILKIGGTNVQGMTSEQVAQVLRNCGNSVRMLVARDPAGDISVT

PDLIM1, O00151 = molecular target: PDLIM1, O00151
PDLIM1, O00151, sequence (O00151 1-87): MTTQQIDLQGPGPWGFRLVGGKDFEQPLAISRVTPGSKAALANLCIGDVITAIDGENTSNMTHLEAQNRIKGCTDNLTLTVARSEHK

LNX2_3, Q8N448 = molecular target: T4, LNX2_3, Q8N448
T4 sequence (Q8N448 463-564, limits assumed, looked up): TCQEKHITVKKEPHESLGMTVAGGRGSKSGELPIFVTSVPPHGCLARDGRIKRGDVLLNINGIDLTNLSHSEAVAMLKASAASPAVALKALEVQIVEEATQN

Inadl_4, Q8NI35 = molecular target: Inadl_4, Q8NI35
Inadl_4, Q8NI35, sequence (Q8NI35 547-651): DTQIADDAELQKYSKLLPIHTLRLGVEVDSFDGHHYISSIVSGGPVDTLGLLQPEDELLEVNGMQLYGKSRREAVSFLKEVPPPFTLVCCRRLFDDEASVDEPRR

SHANK1, Q9Y566 = molecular target: T5, SHANK1, Q9Y566
T5 sequence (Q9Y566 658-767, limits assumed, looked up): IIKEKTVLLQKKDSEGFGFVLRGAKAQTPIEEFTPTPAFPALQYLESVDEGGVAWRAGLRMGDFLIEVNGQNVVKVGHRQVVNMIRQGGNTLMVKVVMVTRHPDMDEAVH

DLG2_3, Q15700 = molecular target: DLG2_3, Q15700
TJP3_3, O95049 = molecular target: T6, TJP3_3, O95049
T6 sequence (O95049 375-456, limits assumed, looked up): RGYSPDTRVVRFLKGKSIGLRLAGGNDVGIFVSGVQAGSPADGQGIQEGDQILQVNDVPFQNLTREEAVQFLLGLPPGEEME

MAGI2_3, Q86UL8 = molecular target: MAGI2_3, Q86UL8
MAGI2_3, Q86UL8, sequence (Q86UL8 600-682): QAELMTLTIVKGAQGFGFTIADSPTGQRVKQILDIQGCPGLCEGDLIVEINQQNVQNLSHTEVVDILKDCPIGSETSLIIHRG

GRID2IP_1, A4D2P6 = molecular target: GRID2IP_1, A4D2P6
GRID2IP_1, A4D2P6, sequence (A4D2P6 1-87): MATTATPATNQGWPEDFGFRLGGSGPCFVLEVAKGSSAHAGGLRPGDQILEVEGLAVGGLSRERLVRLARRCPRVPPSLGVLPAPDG

SCRIB_2, Q14160 = molecular target: SCRIB_2, Q14160
SCRIB_2, Q14160, sequence (Q14160 857-960): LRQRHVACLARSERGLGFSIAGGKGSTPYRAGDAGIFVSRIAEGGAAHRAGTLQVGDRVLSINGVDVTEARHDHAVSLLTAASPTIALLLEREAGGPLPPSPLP

ARHGAP21, Q5T5U3 = molecular target: T7, ARHGAP21, Q5T5U3
T7 sequence (Q5T5U3 45-169, limits assumed, looked up): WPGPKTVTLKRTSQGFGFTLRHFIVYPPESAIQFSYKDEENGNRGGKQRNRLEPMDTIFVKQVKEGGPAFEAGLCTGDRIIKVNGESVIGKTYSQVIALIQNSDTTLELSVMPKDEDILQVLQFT

FRMPD2_2, Q68DX3 = molecular target: FRMPD2_2, Q68DX3
FRMPD2_2, Q68DX3, sequence (Q68DX3 944-1038): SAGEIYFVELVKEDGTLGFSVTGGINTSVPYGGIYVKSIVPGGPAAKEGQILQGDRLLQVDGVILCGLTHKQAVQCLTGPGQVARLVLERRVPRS

PTPN3, P26045 = molecular target: PTPN3, P26045
PTPN3, P26045, sequence (P26045 505-587): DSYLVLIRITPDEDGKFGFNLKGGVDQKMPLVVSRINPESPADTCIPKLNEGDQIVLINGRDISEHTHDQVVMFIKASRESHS

LDB3, O75112 = molecular target: LDB3, O75112
LDB3, O75112, sequence (O75112 1-94): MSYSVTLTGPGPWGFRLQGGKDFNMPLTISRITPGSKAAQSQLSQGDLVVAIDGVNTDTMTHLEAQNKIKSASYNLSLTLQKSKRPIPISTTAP

FRMPD2_1, Q68DX3 = molecular target: FRMPD2_1, Q68DX3
FRMPD2_1, Q68DX3, sequence (Q68DX3 770-861): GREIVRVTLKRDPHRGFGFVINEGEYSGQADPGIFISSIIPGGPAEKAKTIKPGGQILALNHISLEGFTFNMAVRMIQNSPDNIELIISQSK

NHERF4_2, Q86UT5 = molecular target: NHERF4_2, Q86UT5
NHERF4_2, Q86UT5, sequence (Q86UT5 220-308): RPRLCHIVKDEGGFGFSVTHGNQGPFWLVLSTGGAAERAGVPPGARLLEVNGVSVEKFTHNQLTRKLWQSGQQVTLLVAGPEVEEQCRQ

MAGI3_2, Q5TCQ9 = molecular target: MAGI3_2, Q5TCQ9
MAGI3_2, Q5TCQ9, sequence (Q5TCQ9 398-503): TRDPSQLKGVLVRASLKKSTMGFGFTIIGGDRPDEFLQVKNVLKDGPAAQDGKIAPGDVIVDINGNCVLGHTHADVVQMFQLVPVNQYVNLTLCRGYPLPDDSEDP

RAPGEF6, Q8TEU7 = molecular target: T8, RAPGEF6, Q8TEU7
T8 sequence (Q8TEU7 525-625, limits assumed, looked up): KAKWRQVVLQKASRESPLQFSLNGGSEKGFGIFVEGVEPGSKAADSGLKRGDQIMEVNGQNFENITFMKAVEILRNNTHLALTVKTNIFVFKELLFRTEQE

NHERF4_1, Q86UT5-2 = molecular target: NHERF4_1, Q86UT5-2
NHERF4_1, Q86UT5-2, sequence (Q86UT5 other isoform, or with tags, fused parts or gaps): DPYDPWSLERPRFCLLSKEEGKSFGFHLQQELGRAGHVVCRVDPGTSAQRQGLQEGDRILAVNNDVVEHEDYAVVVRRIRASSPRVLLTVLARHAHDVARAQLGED

APBA1_2, Q02410 = molecular target: T9, APBA1_2, Q02410
T9 sequence (Q02410 742-832, limits assumed, looked up): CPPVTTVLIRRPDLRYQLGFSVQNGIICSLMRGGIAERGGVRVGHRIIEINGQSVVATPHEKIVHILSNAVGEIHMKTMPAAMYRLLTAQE

LIN7C, Q9NUP9 = molecular target: T10, LIN7C, Q9NUP9
T10 sequence (Q9NUP9 88-185, limits assumed, looked up): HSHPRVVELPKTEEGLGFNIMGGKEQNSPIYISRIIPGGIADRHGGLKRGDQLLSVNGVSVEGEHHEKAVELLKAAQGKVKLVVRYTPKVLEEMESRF

Binder	pKd (LRRC7, Q96NW7)	pKd (APBA1_1, Q02410)	pKd (MAGI2_4, Q86UL8)	pKd (PARD3_3, Q8TEW0)	pKd (ARHGEF11, O15085)	pKd (Inadl_8, Q8NI35)	pKd (DLG4_1, P78352)	pKd (Inadl_2, Q8NI35)	pKd (PDLIM1, O00151)	pKd (LNX2_3, Q8N448)	pKd (Inadl_4, Q8NI35)	pKd (SHANK1, Q9Y566)	pKd (DLG2_3, Q15700)	pKd (TJP3_3, O95049)	pKd (MAGI2_3, Q86UL8)	pKd (GRID2IP_1, A4D2P6)	pKd (SCRIB_2, Q14160)	pKd (ARHGAP21, Q5T5U3)	pKd (FRMPD2_2, Q68DX3)	pKd (PTPN3, P26045)	other results
RDYTQSSSSL [GRM5, P41594]	below the threshold	below the threshold	below the threshold	below the threshold	3.79	below the threshold	below the threshold	below the threshold	below the threshold	below the threshold	below the threshold	4.7	below the threshold	below the threshold	below the threshold	below the threshold	below the threshold	4.17	below the threshold	4.27	pKd (LDB3, O75112): below the threshold; pKd (FRMPD2_1, Q68DX3): below the threshold; pKd (NHERF4_2, Q86UT5): below the threshold; pKd (MAGI3_2, Q5TCQ9): below the threshold; pKd (RAPGEF6, Q8TEU7): below the threshold; pKd (NHERF4_1, Q86UT5-2): 4.13; pKd (APBA1_2, Q02410): below the threshold; pKd (LIN7C, Q9NUP9): below the threshold
KIEDVEITLV [FCHSD2, O94868]	below the threshold	below the threshold	4.07	3.99	4.42	3.99	3.89	4.3	below the threshold	below the threshold	below the threshold	4.1	below the threshold	below the threshold	4.52	below the threshold	below the threshold	4.01	4.76	3.5	pKd (LDB3, O75112): below the threshold; pKd (FRMPD2_1, Q68DX3): below the threshold; pKd (NHERF4_2, Q86UT5): below the threshold; pKd (MAGI3_2, Q5TCQ9): 4.05; pKd (RAPGEF6, Q8TEU7): below the threshold; pKd (NHERF4_1, Q86UT5-2): 3.73; pKd (APBA1_2, Q02410): 4.07; pKd (LIN7C, Q9NUP9): 4.11

The next lines start with results.

pKd (LRRC7, Q96NW7)	pKd (APBA1_1, Q02410)	pKd (MAGI2_4, Q86UL8)	pKd (PARD3_3, Q8TEW0)	pKd (ARHGEF11, O15085)	pKd (Inadl_8, Q8NI35)	pKd (DLG4_1, P78352)	pKd (Inadl_2, Q8NI35)	pKd (PDLIM1, O00151)	pKd (LNX2_3, Q8N448)	pKd (Inadl_4, Q8NI35)	pKd (SHANK1, Q9Y566)	pKd (DLG2_3, Q15700)	pKd (TJP3_3, O95049)	pKd (MAGI2_3, Q86UL8)	pKd (GRID2IP_1, A4D2P6)	pKd (SCRIB_2, Q14160)	pKd (ARHGAP21, Q5T5U3)	pKd (FRMPD2_2, Q68DX3)	pKd (PTPN3, P26045)	Binder	other results
below the threshold	below the threshold	below the threshold	below the threshold	below the threshold	below the threshold	3.88	below the threshold	below the threshold	below the threshold	below the threshold	below the threshold	below the threshold	below the threshold	below the threshold	below the threshold	3.52	3.97	below the threshold	4.9	KEKASTETEC [TRPM1, Q7Z4N2]	pKd (LDB3, O75112): below the threshold; pKd (FRMPD2_1, Q68DX3): below the threshold; pKd (NHERF4_2, Q86UT5): below the threshold; pKd (MAGI3_2, Q5TCQ9): below the threshold; pKd (RAPGEF6, Q8TEU7): below the threshold; pKd (NHERF4_1, Q86UT5-2): 3.66; pKd (APBA1_2, Q02410): below the threshold; pKd (LIN7C, Q9NUP9): 3.93
below the threshold	below the threshold	3.88	below the threshold	below the threshold	below the threshold	below the threshold	below the threshold	below the threshold	below the threshold	below the threshold	below the threshold	3.82	below the threshold	below the threshold	below the threshold	below the threshold	below the threshold	below the threshold	4.62	QKASRNESTF [POLR1D, P0DPB6]	pKd (LDB3, O75112): below the threshold; pKd (FRMPD2_1, Q68DX3): below the threshold; pKd (NHERF4_2, Q86UT5): below the threshold; pKd (MAGI3_2, Q5TCQ9): below the threshold; pKd (RAPGEF6, Q8TEU7): below the threshold; pKd (NHERF4_1, Q86UT5-2): below the threshold; pKd (APBA1_2, Q02410): below the threshold; pKd (LIN7C, Q9NUP9): below the threshold
below the threshold	3.88	below the threshold	3.98	below the threshold	below the threshold	below the threshold	below the threshold	below the threshold	below the threshold	below the threshold	below the threshold	3.53	below the threshold	below the threshold	below the threshold	below the threshold	below the threshold	below the threshold	3.94	MQILSKPEFI [NPSR1, Q6W5P4]	pKd (LDB3, O75112): below the threshold; pKd (FRMPD2_1, Q68DX3): below the threshold; pKd (NHERF4_2, Q86UT5): below the threshold; pKd (MAGI3_2, Q5TCQ9): below the threshold; pKd (RAPGEF6, Q8TEU7): below the threshold; pKd (NHERF4_1, Q86UT5-2): 3.62; pKd (APBA1_2, Q02410): 4.24; pKd (LIN7C, Q9NUP9): below the threshold

Reference: publication PMC9482650, “Quantitative fragmentomics allow affinity mapping of interactomes” (Nature Communications, 2022)
